The subject of this data set is MS2 coat protein. In words: apparent KD of MS2 coat protein; designed switch direction (-1 OFF switch, 1 ON switch): 1; higher = weaker reporter binding. The method, boiled down:
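An oligonucleotide input, 200 uM small-molecule ligand, or no input was present during titration of SNAP-549-labelled MS2 coat protein, which was doubled from 0.7 or 1.5 nM to 3 µM. Designed RNA switches had been transcribed on Illumina chips by stalled E. coli RNA polymerase. Apparent KD per design is the median over clusters of curves fitted to normalised cluster fluorescence.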

Where [1] appears, read: input ligand: microRNA oligo, concentration not stated.
Where [2] appears, read: Eterna round: R95, input ligand: FMN 200 uM.
[3] abbreviates: Eterna round: R95, input ligand: microRNA oligo, concentration not stated.
Where [4] appears, read: Eterna round: R95, input ligand: none.

From the supplement of paper PMC9170038 come the findings set out here.

With “UUUAGAGGCGCAGGAUAUGGUGAGGAUCACCCACUAGAAGGGUGCACAUGAGAAUCGGACAUGAGGAUCACCCAUGUUUGGCGC (Eterna round: R96, puzzle: Same State NG 1)”, the “apparent KD of MS2 coat protein” value is, setting by setting: (input ligand: FMN 200 uM) 806 nM; under setting [1], 554 nM; (input ligand: none) 816 nM.
“ACAUGACAUGAGGAUCACCCAUGUCGAUAAAAGCAAGGAUAUGGGCCCGAGUCGUUCGGACCAGAAGGUGCGUCUC [Orso] (Eterna round: R96, puzzle: Same State 1)”: the “apparent KD of MS2 coat protein” value is, setting by setting: (input ligand: FMN 200 uM) 18.3 nM; under setting [1], 16.3 nM; (input ligand: none) 23.8 nM.
“AACAAUCUAUCUGAGGAUAUCAUGAAAUAAACAUGAGGAUCACCCAUGUGCAGGAAAACUGCAUAUGAGAAGGCAGAUAGAUUUA [salish99_ss2_r3_057] (puzzle: Same State 2)”: the “apparent KD of MS2 coat protein” value reads like this: under setting [2], 43.8 nM; under setting [3], 638 nM; under setting [4], 1000 nM.
In the case of “GGAGAGAGAGCGCAGGAUAUUUAAGGAGAAACAUGAGGAUCACCCAUGUGAGAGAGAGAGGAGAGAGAGAAGGGUGAGAGAGAGG [Altered State 2-16 - Jieux - Same State 2] (puzzle: Same State 2)”, the “apparent KD of MS2 coat protein” value by setting is: under setting [2], 26.7 nM; under setting [3], 23.9 nM; under setting [4], 36.2 nM.
Turning to “AAAAGAAACAUGUACCUGAGUACAUGAAAACAUGAGGAUCACCCAUGUAACAAGCUGGGUGCUCGUCUUAUAAGAAA [JL pocket 1] (Eterna round: R96, puzzle: Sensor for hsa-mir-208a)”, the “apparent KD of MS2 coat protein” value reads like this: (input ligand: FMN 200 uM) 137 nM; under setting [1], 22.3 nM; (input ligand: none) 77.7 nM.
For the sequence “UUAAUGAUGUUAGGAUAUACAUGAGGAAUCCUCGUAGAAGGAACAUGACAUGAGGAUCACCCAUGUAACGCUCCGUAGAGCGUA [JL SSNG1 1.17] (Eterna round: R96, puzzle: Same State NG 1)”, the “apparent KD of MS2 coat protein” value under setting [1] came to 44.7 nM.
In the case of “GGUAGGUUACUACCAAUCUACAUGAGGAUCACCCAUGUGUAGGAGGAUAUGGUACCUAUUUGGUACCAGAAGGCCUAAUUAAUU [Fiskers NG3ss - 9] (Eterna round: R96, puzzle: Same State NG 3)”, the “apparent KD of MS2 coat protein” value stood at 117 nM (input ligand: FMN 200 uM), 96.7 nM under setting [1] and 111 nM (input ligand: none).
Take “GUGGAGAAUUAAGGAUAUCGAGUCAAGAUGUUAAACAUGAGGAUCACCCAUGUGGGUUGCGGUAUCGAGAAGGUAAAUUACGGG [salish99_SSNG2_r04_504] (Eterna round: R96, puzzle: Same State NG 2)”: the “apparent KD of MS2 coat protein” value by setting is: (input ligand: FMN 200 uM) 28.3 nM; under setting [1], 25.1 nM; (input ligand: none) 34.1 nM.
For “AAAAUGGUAUGUUACAUGAGGAUCACCCAUGUACUCUAAUCUGAGGAUAUGGGAAUGUAGAAGAACCAGAAGGCAGACAUCCAA [AK SSNG3-V2-22.1] (Eterna round: R96, puzzle: Same State NG 3)”, in that order: 149 nM, 70.2 nM and 86 nM.
Regarding “UAGUACAAGCUUUUUGCUUGUCUUAUUUAACAUGAGGAUCACCCAUGUAAGUUGAAAGUUAGAGAGUGCAGGUUGAA [JR_SHM208A_Sub051] (puzzle: Sensor for hsa-mir-208a)”, the “apparent KD of MS2 coat protein” value is 16.8 nM under setting [2], 21.9 nM under setting [3] and 17.1 nM under setting [4].
The corresponding values for “AUAAGGCAAGCUUUUUUCUCGUAGUGUAAACAUGAGGAUCACCCAUGUGCCCACCCUGGACCUUUGGAUCGCAGAAA [Geatxe] (puzzle: Sensor for hsa-mir-208a)” are 30.5 nM, 25.9 nM and 25.9 nM.
With “AACGGUCGACAAGGAUAUGGACGGACAGGUUUGCCUGUGCGGCUCACAUGAGGAUCACCCAUGUUCUAGAAGGUGUCACCAAGA [Tiinor] (Eterna round: R96, puzzle: Same State NG 2)”, the “apparent KD of MS2 coat protein” value (input ligand: FMN 200 uM) stood at 36.9 nM, the “apparent KD of MS2 coat protein” value under setting [1] turned out to be 141 nM and the “apparent KD of MS2 coat protein” value (input ligand: none) amounted to 259 nM.
For the sequence “GCUACCAUUGAUGCCUACAUGAGGAUCACCCAUGUAUGUAGGCAGGAUAUCGAUUGCAAAGCGAUCGAGAAGGGCUUAGGUAGC [Mat - Same State NG 3 - JL Mod - D93] (Eterna round: R96, puzzle: Same State NG 3)”, the “apparent KD of MS2 coat protein” value is, setting by setting: (input ligand: FMN 200 uM) 56 nM; under setting [1], 103 nM; (input ligand: none) 149 nM.
Turning to “AGUCCUGAAAAGAAAAUAAUAAGUGAUGUACAUGAGGAUCACCCAUGUCAUGUACAAGUUCUAUGCUCGUCAUAUAA [Sensorship 24 - Jieux - Sensor for hsa-mir-208a] (puzzle: Sensor for hsa-mir-208a)”, the “apparent KD of MS2 coat protein” value reads like this: under setting [2], 106 nM; under setting [3], 32.2 nM; under setting [4], 98.1 nM.
The corresponding values for “AUAAGUUUGAUGCUCGUCUCUCCGUACGGACAUGAGGAUCACCCAUGUAGUCGGGAAGUAGCCCGGCCAGUAUGGCC [Soveerre] (puzzle: Sensor for hsa-mir-208a)” are 32.6 nM, 22.3 nM and 22.9 nM.
For “UUAGGAUGUGAAGGAUAUGCCGAGUUAAGCCCAGCAGAAGGUUACAUACCUUUUGAUACAUGAGGAUCACCCAUGUUCUAAGAU [Eternabot solution 45] (Eterna round: R96, puzzle: Same State NG 1)”, the “apparent KD of MS2 coat protein” value under setting [1] is 33.8 nM.
As to “GCGGAACGGGCCGACAUGAGGAUCACCCAUGUGGCCUCAUGUCAGGAUAUCGGGAAGAAGAAAACCGAGAAGGGACGGUGACGC [AK SSNG3-V2-32] (Eterna round: R96, puzzle: Same State NG 3)”, the “apparent KD of MS2 coat protein” value by setting is: (input ligand: FMN 200 uM) 8.18 nM; under setting [1], 29.8 nM; (input ligand: none) 22.2 nM.
The corresponding values for “UUGCUCGUGUGAGGAUAUGCCGCCGUUUCGGCUGCAGAAGGUACUGUAAUACAUGAGGAUCACCCAUGUCUCUGUUGUUUCGUG [salish99_SSNG1_r04_934] (Eterna round: R96, puzzle: Same State NG 1)” are 17.1 nM, 16.4 nM and 19.3 nM.
For “UGGCCAGCCUGUGCUGGGCUUUAGCAUGUACAUGAGGAUCACCCAUGUCGUGUACAUGCUUUUUGCUCGUCUUUAAA [Photon Torp-06] (puzzle: Sensor for hsa-mir-208a)”, the “apparent KD of MS2 coat protein” value under setting [2] turned out to be 35.8 nM, the “apparent KD of MS2 coat protein” value under setting [3] turned out to be 23.1 nM and the “apparent KD of MS2 coat protein” value under setting [4] turned out to be 125 nM.
“CGCGGCAAGGAAGGAUAUGGGACGAAAACGUACCUAGAAGGUCCACAUGAGGAUCACCCAUGUACCAAGAAAACCGCUAAAUUA [Atceorer] (Eterna round: R96, puzzle: Same State NG 1)”: the “apparent KD of MS2 coat protein” value (input ligand: FMN 200 uM) was 70.7 nM, the “apparent KD of MS2 coat protein” value under setting [1] was determined as 177 nM and the “apparent KD of MS2 coat protein” value (input ligand: none) amounted to 207 nM.
“CGUCGUUUGAUAGGAUAUCGCUAUACAUGAGGAUCACCCAUGUUUACCACGCUGGUUUUUCAUUCCGAGAAGGAUUCUGAUGUU [salish99_SSNG02_r04_021] (Eterna round: R96, puzzle: Same State NG 2)”: the “apparent KD of MS2 coat protein” value reads like this: (input ligand: FMN 200 uM) 34.7 nM; under setting [1], 26 nM; (input ligand: none) 36.1 nM.
